Assay results: article doi:10.1101/2025.05.18.654456

Target: F-actin (actin purified from rabbit white skeletal muscle, polymerised) (rabbit), P68135
Experiment: co-sedimentation; various concentrations of His-α-actinin in A50 buffer (50 mM HEPES-KOH pH 7.6, 50 mM KCl, 5 mM MgCl2, 1 mM EGTA) mixed with 10 μM G-actin on ice, 25°C for 60 min to polymerise actin, centrifuged at 100,000 ×g for 10 min at 25°C; supernatant and pellet on SDS-PAGE, Coomassie; model fitting; apparent dissociation constant
Conditions: remark: other sources report otherwise

Kd: 1.4 µM
B1: Recombinant human α-actinin I (6×His-tagged), P12814 1-892 (natural protein)
chain: MDHYDSQQTNDYMQPEEDWDRDLLLDPAWEKQQRKTFTAWCNSHLRKAGTQIENIEEDFRDGLKLMLLLEVISGERLAKPERGKMRVHKISNVNKALDFIASKGVKLVSIGAEEIVDGNVKMTLGMIWTIILRFAIQDISVEETSAKEGLLLWCQRKTAPYKNVNIQNFHISWKDGLGFCALIHRHRPELIDYGKLRKDDPLTNLNTAFDVAEKYLDIPKMLDAEDIVGTARPDEKAIMTYVSSFYHAFSGAQKAETAANRICKVLAVNQENEQLMEDYEKLASDLLEWIRRTIPWLENRVPENTMHAMQQKLEDFRDYRRLHKPPKVQEKCQLEINFNTLQTKLRLSNRPAFMPSEGRMVSDINNAWGCLEQVEKGYEEWLLNEIRRLERLDHLAEKFRQKASIHEAWTDGKEAMLRQKDYETATLSEIKALLKKHEAFESDLAAHQDRVEQIAAIAQELNELDYYDSPSVNARCQKICDQWDNLGALTQKRREALERTEKLLETIDQLYLEYAKRAAPFNNWMEGAMEDLQDTFIVHTIEEIQGLTTAHEQFKATLPDADKERLAILGIHNEVSKIVQTYHVNMAGTNPYTTITPQEINGKWDHVRQLVPRRDQALTEEHARQQHNERLRKQFGAQANVIGPWIQTKMEEIGRISIEMHGTLEDQLSHLRQYEKSIVNYKPKIDQLEGDHQLIQEALIFDNKHTNYTMEHIRVGWEQLLTTIARTINEVENQILTRDAKGISQEQMNEFRASFNHFDRDHSGTLGPEEFKACLISLGYDIGNDPQGEAEFARIMSIVDPNRLGVVTFQAFIDFMSRETADTDTADQVMASFKILAGDKNYITMDELRRELPPDQAEYCIARMAPYTGPDSVPGALDYMSFSTALYGESDL
